{"source": "paper PMC10567725", "about": "“Structure of full-length cobalamin-dependent methionine synthase and cofactor loading captured in crystallo” (Nature Communications, 2023)", "assay_in_all_cases": "purified protein", "key": {"purified protein [1]": {"substrate": "CN1c2c(nc(N)[nH]c2=O)NC[C@@H]1CNc1ccc(C(=O)N[C@@H](CCC(=O)O)C(=O)O)cc1", "settings": "100 µM homocysteine, SAM, aquacobalamin, DTT, pH 7.2, 50 °C, holo-tMS (MeCbl), pH 7.2"}, "purified protein [2]": {"substrate": "C[S+](CC[C@H](N)C(=O)O)C[C@H]1O[C@@H](n2cnc3c(N)ncnc32)[C@H](O)[C@@H]1O", "settings": "1.25 mM DL-homocysteine, 104 µM (6S)-methyltetrahydrofolate, 50 °C, holo-tMS, reactivation (reductive methylation of cob(II)alamin)"}, "purified protein [3]": {"substrate": "NC(CCS)C(=O)O", "format": "biochemical, Thermus thermophilus", "settings": "250 µM CH3-H4folate, SAM, aquacobalamin, DTT, pH 7.2, 50 °C, holo-tMS, DL-homocysteine varied"}}, "data": [{"protein": "tMS (full-length cobalamin-dependent methionine synthase) (Thermus thermophilus HB8) (protein, full-length wild type, five modules Hcy:Fol:Cap:Cob:Act, N-terminal His tag with TEV site (cut), E. coli BL21star(DE3); holoenzyme reconstituted with MeCbl; 132 kDa) MVEVHACSPGCRHHLGGAGWGDAPLVRLGYNKEARAKKFPYLKALLERPLVFDGAMGTELQKRDLTPEDYGGEAYFGCPEVLNRTRPEVVREIHLAYLEAGAEVIETNTFGALRHVLAEYGLEEAAEELAFLGARIAREAADPHGAFVAGALGPGTKLVSLGQISWDALYRAYKEAARGLLKGGVDLILLETAQDILQVRCAVLAVREAMAEVGREVPLQVQVTFEATGTMLVGTDEQAALAALESLPVDVVGMNCATGPDLMDSKVRYFAEHSTRFVSCLPNAGLPRNEGGRVVYDLTPEELAKWHLKFVAEYGVNAVGGCCGTGPEHIRKVAEAVKGLAPKPRPESFPPQVASLYQAVSLKQEASLFLVGERLNATGSKRFREMLFARDLEGILALAREQVEEGAHALDLSVAWTGRDELEDLRWLLPHLATALTVPVMVDSTSPEAMELALKYLPGRVLLNSANLEDGLERFDRVASLAKAHGAALVVLAIDEKGMAKTREEKVRVALRMYERLTEHHGLRPEDLLFDLLTFPITQGDEESRPLAKETLLAMEELRERLPGVGFVLGVSNVSFGLKPRARRVLNSVFLDEARKRGLTAAIVDAGKILPISQIPEEAYALALDLIYDRRKEGFDPLLAFMAYFEAHKEDPGKREDAFLALPLLERLKRRVVEGRKQGLEADLEEALKAGHKPLDLINGPLLAGMKEVGDLFGAGKMQLPFVLQAAEVMKRAVAYLEPHMEKKGEGKGTLVLATVKGDVHDIGKNLVDIILSNNGYRVVNLGIKVPIEEILKAVEAHKPHAVGMSGLLVKSTLVMKENLEYMRDRGYTLPVILGGAALTRSYVEELRAIYPNVYYAEDAFEGLRLMEELTGHAPPELTRKAPARPKREAPKVAPRARPVGEAPAVPRPPFFGVRVEEGLDLATIAHYVNKLALYRGQWGYSRKGLSREAWQALVEREAEPVFQRLLKEAMAEGWLEPKVLYGFFPVAREGEELLVFSPETGEVLERFRFPRQKGGGLSLVDYFRPRFAAPLGDEADWMPKEAFRAGARDVLGVQLVTMGEAPSRKAQALFASGAYQDYLFVHGFSVEMTEALAEYWHKRMRQMWGIAHQDATEIQKLFQQGYQGARYSFGYPACPDLADQAKLDRLMGFHRVGVRLTENFQLEPEHATSALVVHHPEARYFSVD", "values": [{"measurement": "Km", "setting": "purified protein [1]", "value": "18 ± 4.1", "unit": "µM"}, {"measurement": "Km", "setting": "purified protein [2]", "value": "1.0 ± 0.1", "unit": "µM"}, {"measurement": "Km", "setting": "purified protein [3]", "value": "9.3 ± 3.1", "unit": "µM"}]}]}
